According to article PMC4344358, “Radiation damage to nucleoprotein complexes in macromolecular crystallography” (Journal of Synchrotron Radiation, 2015):

Target: the molecule itself
Assay: crystal structure; C.Esp1396I (0.7 mg/ml) mixed with 35 bp dsDNA at 4:1 molar ratio; sitting-drop vapour diffusion at 293 K, 50 mM MES pH 7.5, 25% MPD, 40 mM MgCl2; data at 100 K, space group P6(5), 2.8 A; eight datasets of increasing dose from one crystal

B1: C.Esp1396I (natural protein)
chain: MESFLLSKVSFVIKKIRLEKGMTQEDLAYKSNLDRTYISGIERNSRNLTIKSLELIMKGLEVSDVVFFEMLIKEILKHD
notes: C.Esp1396I, bacterial helix-turn-helix controller protein of a restriction-modification system; native protein; protein chains A-D of the deposited entries; also called C-protein; controller C-protein; source: expression and purification as described earlier (McGeehan et al., 2008); pure protein
  stoichiometry N: 4
